We go through two substances from patent publication US20040126856A1, “Factor ixa: factor Vllla interaction and methods therefor” (priority 2004, published 2004).

The target in data set [1] is T1, A2 subunit of factor VIIIa (Homo sapiens, UniProt P00451).
T1 construct: cleaved by thrombin at R372-S373, R740-S741, and R1689-S1690 to yield factor VIIIa
T1 sequence (P00451 392-759): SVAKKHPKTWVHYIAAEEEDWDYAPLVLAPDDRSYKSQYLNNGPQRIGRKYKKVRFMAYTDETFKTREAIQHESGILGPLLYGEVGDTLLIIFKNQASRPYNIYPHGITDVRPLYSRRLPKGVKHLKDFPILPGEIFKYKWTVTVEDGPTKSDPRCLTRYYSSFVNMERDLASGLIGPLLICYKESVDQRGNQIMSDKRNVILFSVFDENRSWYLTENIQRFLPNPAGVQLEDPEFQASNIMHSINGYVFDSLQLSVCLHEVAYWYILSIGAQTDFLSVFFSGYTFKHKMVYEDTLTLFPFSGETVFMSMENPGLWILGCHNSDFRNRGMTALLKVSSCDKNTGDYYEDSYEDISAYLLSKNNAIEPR
In words: Fluorescence quenching of the dansyl moiety in dEGR-IXa by the A2 subunit. It counts as binding. As to conditions: for Change in dansyl fluorescence emission intensity on titration with A2 subunit: 100 μM PL (FIG. 4). As for the experimental part: Fluorescence Quenching of the Dansyl Moiety in dEGR-IXa by the A2 Subunit.
The effect of the A2 subunit on the emission intensity of the dansyl moiety in each dEGR-IXa protein was determined using the SLM AB2 spectrofluorometer. Each reaction mixture contained 220 nM dEGR-IXa in 20 mM Hepes, pH 7.2, 100 mM NaCl, 5 mM CaCl2, 0.01% Tween, 200 μg/ml BSA and 100 μM PL vesicles. The excitation wavelength was 340 nm (slit width, 8 nm) and the emission wavelength was 540 nm (slit width; 8 nm). First, blank values (in triplicate) were obtained for the buffer containing PL. dEGR-IXa was then added and the emission intensity in the absence of the A2 subunit was recorded. Each reaction mixture was subsequently titrated with the A2 subunit and the emission readings (in triplicate) were obtained at each time point. The fluorescence emission intensity at each point was corrected for increases in the reaction volume prior to analysis of the data. […] Data are presented as F/F0 where F0 is the emission intensity in the absence of A2 subunit and F is the intensity at a given A2 subunit concentration.

The next data set deals with T2, A2 558-565 peptide (Homo sapiens, UniProt P00451).
T2 construct: made in house; host or cells: chemical synthesis (synthetic peptide)
In words: Apparent Kdpeptide of binding of each factor IXa to the A2 558-565 peptide. It counts as biochemical. The following applies: for Kd: values from FIG. 5, A2 558-565 peptide, read-out: App Kdpeptide; for ΔG°peptide: ΔG° = RTlnKd, 298 Kelvin. As for the experimental part:
Determination of the Apparent Kdpeptide of Binding of Each Factor IXa to the A2 558-565 Peptide.
The apparent Kd (termed Kdpeptide) for binding of each factor IXa to the A2 558-565 peptide was determined by its ability to inhibit the respective IXa:A2 subunit interaction as measured by reduction in the rate of factor X activation in the tenase system. The reaction mixtures for both IXaWT and IXaPCEGF1 contained 100 nM factor IXa, 30 nM A2 subunit, 250 nM factor X, and 25 μM PL in TBS/BSA, pH 7.5 with 5 mM CaCl2. The reaction mixture for IXaR333Q contained 300 nM factor IXa instead of 100 nM used for IXaWT or IXaPCEGF1; concentrations of other components were the same. The amount of factor Xa generated was determined by hydrolysis of S-2222. The IC50 values were obtained using Eq. 2. Here, y is the rate of factor Xa formation in the presence of a given concentration of the A2 558-565 peptide represented by x, and a is the maximum rate of factor Xa formation in the absence of the A2 peptide. Eq. 3 was then used to obtain the apparent Kdpeptide values. In this context, A is the concentration of IXaWT, IXaPCEGF1, or IXaR333Q, and EC50 is the apparent KdA2 for the respective IXa:A2 subunit interaction.

A further data set addresses T3, factor X (Homo sapiens, UniProt P00742).
T3 construct: Normal plasma factor IX (IXNP) and factor X was isolated as previously described; from tissue; host or cells: normal plasma
In words: Activation of factor X by factor IXa proteins in the presence of only Ca2+ and PL (absence of factor VIIIa). The class given is biochemical. As to conditions: 20 nM factor IXa; for kcat: 5 mM CaCl2, absence of factor VIIIa; for Km: 5 mM CaCl2, factor X 25 nM to 3 μM, absence of factor VIIIa. As for the experimental part:
Activation of Factor X by Each Factor IXa Protein in the Presence of Only Ca^2+ and PL.
For these studies, each factor IX was activated with factor XIa/Ca^2+ as described above. For factor X activation studies, the concentration of factor IXa was kept at 20 nM and the buffer used was TBS/BSA (TBS with […] BSA) containing 5 mM CaCl2. The concentrations of PL used were 10, 25, 50, and 100 μM in different sets of experiments. The concentration of factor X at each PL concentration ranged from 25 nM to 3 μM. The activations were carried out for 5-15 min and the amount of factor Xa generated was measured by hydrolysis of S-2222 as described previously (Mather and Bajaj, 1999; Mather et al., 1997). The Km and kcat values were obtained using the program GraFit from Erithacus Software.

T3 sequence (P00742 183-488 limits assumed): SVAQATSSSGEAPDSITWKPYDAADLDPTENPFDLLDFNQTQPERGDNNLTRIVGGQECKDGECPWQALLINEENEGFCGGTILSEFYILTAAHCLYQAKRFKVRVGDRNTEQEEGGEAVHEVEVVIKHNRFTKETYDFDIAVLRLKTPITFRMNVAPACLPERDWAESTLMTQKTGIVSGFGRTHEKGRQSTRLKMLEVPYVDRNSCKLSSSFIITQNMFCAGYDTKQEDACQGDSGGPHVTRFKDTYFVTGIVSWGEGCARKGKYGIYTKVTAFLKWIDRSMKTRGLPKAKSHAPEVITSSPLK
T3 sequence (P00742 41-179 limits assumed): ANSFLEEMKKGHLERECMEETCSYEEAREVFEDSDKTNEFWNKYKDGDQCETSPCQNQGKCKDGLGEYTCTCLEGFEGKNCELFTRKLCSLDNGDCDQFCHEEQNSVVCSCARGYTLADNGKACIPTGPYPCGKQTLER

Usually kcat stands for the number of substrate molecules converted per active site and unit of time at saturation. The term Km denotes the concentration of substrate that gives half-maximal velocity. Turning to “IXaWT: activated recombinant wild-type factor IX (IXWT)”, the “Change in dansyl fluorescence emission intensity on titration with A2 subunit” value in data set [1] (220 nM dEGR-IXa protein) is “dose-dependent decrease”. Besides, in data set [1] (bimolecular association model fit, 220 nM dEGR-IXa protein, 100 μM PL), the “Plateau value for F/F0” value stood at 0.59±0.05. The Kd in data set [1] (bimolecular association model fit, read-out: Apparent KdA2 from fluorescence quenching) is roughly 0.1 µM; in the data set with A2 558-565 peptide, 4 ± 1 µM. In the data set with A2 558-565 peptide, the “ΔG°peptide” value was 7.36 kcal/mol. In addition, the catalytic constant (kcat) in the data set with factor X (PL 10 μM) was found to be 0.000167 s⁻¹; in the data set with factor X (PL 25 μM), 0.0002 s⁻¹; in the data set with factor X (PL 50 μM), 0.0004 s⁻¹; with factor X (PL 100 μM), 0.000633 s⁻¹. For the same substance, the Km with factor X (PL 10 μM) was 0.09 µM; with factor X (PL 25 μM) it was 0.12 µM; with factor X (PL 50 μM) it was 0.24 µM; with factor X (PL 100 μM), 0.57 µM.
As for “IXaR333Q: activated factor IX point mutant in which Arg333 is replaced by Gln”, in data set [1] (220 nM dEGR-IXa protein), the “Change in dansyl fluorescence emission intensity on titration with A2 subunit” value is on record as “little if any change”. Besides, in the data set with A2 558-565 peptide, the “Change in ΔG°peptide between the mutant and WT” value was 1.62 kcal/mol; the “Fold-change in apparent Kdpeptide (mutant/WT)” value was roughly 15; the Kd turned out to be 62 ± 9 µM; the “ΔG°peptide” value was found to be 5.74 kcal/mol. Moreover, in the data set with factor X (PL 10 μM), the turnover number (kcat) worked out at 0.0002 s⁻¹ and the Michaelis-Menten constant (Km) was 0.11 µM. For the same substance, in the data set with factor X (PL 25 μM), the kcat is 0.0003 s⁻¹ and the Km came to 0.18 µM. Moreover, in the data set with factor X (PL 50 μM), the turnover number (kcat) came out at 0.0005 s⁻¹ and the Km came to 0.23 µM. For the same substance, in the data set with factor X (PL 100 μM), the kcat came out at 0.000667 s⁻¹ and the Km was determined as 0.61 µM.
